{"source": "paper PMC10763564", "about": "“BrainBike peptidomimetic enables efficient transport of proteins across brain endothelium†” (RSC Chemical Biology, 2023)", "key": {"[1]": {"biological_target": "T1, TfR1 fused to a green fluorescent protein, on transfected HeLa cells (TfR1+++) (UniProt P02786 1-760)", "T1 construct": "Transferrin Receptor 1 (TfR1) encoded by a plasmid as a fusion with GFP; The transfected HeLa cells carry the endogenous TfR1 as well; also called GFP-TfR1; source: HeLa, transfected, on cells", "T1 sequence (P02786 whole entry, the tested form may be a part)": "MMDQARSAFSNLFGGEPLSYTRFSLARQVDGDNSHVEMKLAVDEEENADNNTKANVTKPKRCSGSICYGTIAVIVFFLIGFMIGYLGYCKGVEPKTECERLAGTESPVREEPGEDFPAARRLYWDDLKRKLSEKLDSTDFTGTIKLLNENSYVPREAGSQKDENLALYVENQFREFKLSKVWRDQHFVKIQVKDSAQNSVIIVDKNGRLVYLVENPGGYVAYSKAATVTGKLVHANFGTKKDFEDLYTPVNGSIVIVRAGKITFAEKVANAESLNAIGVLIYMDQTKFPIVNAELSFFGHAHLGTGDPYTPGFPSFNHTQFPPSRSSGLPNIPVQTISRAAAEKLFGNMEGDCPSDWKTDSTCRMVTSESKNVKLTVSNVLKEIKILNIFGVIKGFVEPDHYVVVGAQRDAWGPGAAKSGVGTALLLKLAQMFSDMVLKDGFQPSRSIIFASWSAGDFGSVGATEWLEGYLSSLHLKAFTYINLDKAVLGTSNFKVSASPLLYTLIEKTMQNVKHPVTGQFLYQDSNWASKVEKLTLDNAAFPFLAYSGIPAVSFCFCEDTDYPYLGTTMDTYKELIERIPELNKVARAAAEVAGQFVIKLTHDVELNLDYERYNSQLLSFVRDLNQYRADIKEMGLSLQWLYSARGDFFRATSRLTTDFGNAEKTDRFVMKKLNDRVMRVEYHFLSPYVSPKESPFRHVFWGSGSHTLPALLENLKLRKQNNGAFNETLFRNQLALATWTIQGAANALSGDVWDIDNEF", "assay": "flow cytometry on cells; sCy5-labelled peptide on HeLa cells transfected with GFP-TfR1 (TfR1+++), cells with higher levels of the receptor analysed", "conditions": "one partner purified"}, "[2]": {"biological_target": "T2, Transferrin Receptor 1 on HeLa cells (TfR1+) (human (endogenous in HeLa), UniProt P02786 1-760)", "T2 construct": "Transferrin Receptor 1 (TfR1), endogenous on HeLa cells; source: endogenous, on HeLa cells", "T2 sequence (P02786 whole entry)": "as the sequence (P02786 whole entry, the tested form may be a part) above", "assay": "flow cytometry on cells; sCy5-labelled peptides on HeLa cells (TfR1+, endogenous receptor)", "conditions": "one partner purified"}}, "note": "Starred links: 1 amine or outer side, 2 acyl side, 3 side chain; linkers in the order of their positions; H or OH if unused. Positions of bridges follow the written chain, without caps; N, C: chain ends. No end group written: not given here. TBMB = c1c(C[*:1])cc(C[*:3])cc1C[*:2]", "data": [{"binder": "{sulfo‑Cyanine5}-GSGCVHWDCRQWC (linker 4-9-13 via TBMB)", "note": "[BrainBike-4 labelled with sulfo-Cyanine5]", "values": [{"measurement": "fold binding against the same cells without overexpressing the receptor", "setting": "[1]", "value": "~40", "unit": "fold"}, {"measurement": "Kd", "setting": "[2]", "value": "~40", "unit": "nM"}, {"measurement": "fold cell association against the parent peptide Y1", "setting": "[2]", "value": 7, "unit": "fold"}]}]}
